Results on 1 substance are retold here after US5567302A, “Electrochemical system for rapid detection of biochemical agents that catalyze a redox potential change” (priority 1995, dated 1996).

The subject of the data set is OC[C@H]1O[C@@H](Oc2c[nH]c3ccc(Br)c(Cl)c23)[C@H](O)[C@@H](O)[C@H]1O. Description: purified protein, by the assay type. Particulars: other: β-D-galactosidase substrate; stated when explaining why the standard curve levels off at high enzyme amounts.

Usually Km stands for the concentration of substrate that gives half-maximal velocity. As for “biotinylated β-D-galactosidase (Escherichia coli K-12)”, the Km is 3000 µM.
